Data published in patent US20070286806A1, “Methods and Compositions for Modulating a Steroid Receptor” (Mount Sinai Hospital, priority 2004, published 2007).

Assays:
Test in all cases: One-hybrid system: PR activation domains fused to Gal4 DBD, G5-Luc reporter and western blot in SHM cells
Type in all cases: cell-based
[1] = molecular target: T1, activation domains of PR (Homo sapiens, UniProt P06401); details: PR650-933 (only the AF2 domain)
T1 construct: expressed in transfected cells; host or cells: SHM (Syrian hamster myocyte) cells
T1 sequence (P06401 650-933): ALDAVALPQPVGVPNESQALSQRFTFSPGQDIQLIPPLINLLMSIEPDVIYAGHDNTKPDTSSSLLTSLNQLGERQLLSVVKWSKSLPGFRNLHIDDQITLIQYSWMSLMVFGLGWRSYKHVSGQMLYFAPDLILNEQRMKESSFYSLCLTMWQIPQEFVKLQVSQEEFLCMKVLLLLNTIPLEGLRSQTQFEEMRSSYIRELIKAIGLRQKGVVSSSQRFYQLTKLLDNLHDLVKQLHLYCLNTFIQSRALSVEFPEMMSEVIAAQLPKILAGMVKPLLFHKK
Procedure: (§1) FIG. 6 A-F. Inhibition of PR activation domains by PSF involves different mechanisms. Segments containing individual activation domains of PR were fused to Gal4 DNA binding domain in pM vector and cotransfected with or without increasing amounts of His-PSF, together with G5 luciferase reporter vector in SHM cells. Progesterone (10 nM) was added to cells transfected with segments containing PR hormone binding domain (HBD). Luciferase activity was measured 30 hours after transfection and normalized to β-galatosidase acitvity. Data shown are the mean of three separate experiments performed in triplicate±S.E. Whole cell lysate from each transfection was western blotted with anti-Gal4 DNA binding domain (DBD) antibody (Santa Cruz) and anti-His tag antibody H-15 (Santa Cruz). Note: the empty vector pSG5 was added to the DNA mixture to ensure that the amounts of SV40 promoter in all the transfection assays are equal.
(§2) For immunoprecipitation of the endogenous PR and PSF, T47D cells cultured in 150 mm dishes were lysed in 800 μl NETN buffer containing 150 mM NaCl plus protease inhibitor cocktail. Cell lysate were then incubated with 5 μg of PR or PSF, or control mouse IgG at 4° C. overnight, followed by the addition of 30 μl of protein A/G PLUS-agarose beads (Santa Cruz) for another two hours at 4° C. Resins were washed with NETN containing 250 mM NaCl and eluted with 1×Laemmli buffer. The eluted proteins along with the whole cell extract were western blotted by PR or PSF antibody. • GST pulldown assay: GST pulldown assay was performed as previously described (20). GST and its fusion proteins were first immobilized to glutathione-Sepharose 4B affinity matrix. The matrix was then incubated at 4° C. overnight with rabbit reticulocyte lysate (Promega) containing PR or His-PSF transcribed and translated in presence of ^35S methionine. The matrix was washed three times with cold NETN buffer before adding 1 ×Laemmli buffer to elute associated proteins. The eluted proteins were separated on 10% SDS-PAGE gel. Gels were treated with Enhancer (NEN, Boston, US) dried and analyzed by autoradiography. • Cell culture and transient transfection: SHM cells and 293T cells were maintained in DMEM plus 5% FCS (Sigma) as described before (22). For experiments involving steroid exposure, the medium was substituted with phenol red free DMEM containing 5% charcoal-treated fetal bovine serum (Hyclone, Utah, USA). Transfection was performed according to manufacturers protocol (Fementas). Cells were seeded at a density to achieve 60-80% confluency the following day. The DNA and transfection reagent were mixed and added to the medium. Cell lysates were collected at least 30 hours after transfection. For luciferase assay, cells were collected in 200 μl of lysis buffer (Promega) of which 10μl was used for the luciferase and β-Gal activity assays respectively. Luciferase activity was determined by using the luciferin reagent (Promega) according to manufacture's protocol. Transfection efficiency was normalized to β-galactosidase activity. For western blots, cell lysates were collected in NETN buffer plus protease inhibitor cocktail. About 30 μg of protein extract was separated on SDS gel electrophoresis followed by western blotting with antibodies of interest. • Electrophoretic Mobility Shift Assay: PRDBD was synthesized in rabbit reticulocyte by using the TNT coupled in vitro transcription-translation system (Promega) with the vector pcDNA3 PRDBD. Full-length PR protein extract was obtained by transiently transfecting 293T cells with Flag-PRB vector. Cells were treated with 10^−8 M progesterone and nuclear fraction was extracted by the NE-PER Nuclear and Cytoplasmic Extraction Reagents Kit (Pierce). The nuclear fraction containing PRs was confirmed by western blot with the PR antibody AB-52 and used in gel shift assay. […]

[2] = molecular target: T2, activation domains of PR (Homo sapiens, UniProt P06401)
T2 construct: expressed in transfected cells; host or cells: SHM (Syrian hamster myocyte) cells
T2 sequence (P06401 1-164): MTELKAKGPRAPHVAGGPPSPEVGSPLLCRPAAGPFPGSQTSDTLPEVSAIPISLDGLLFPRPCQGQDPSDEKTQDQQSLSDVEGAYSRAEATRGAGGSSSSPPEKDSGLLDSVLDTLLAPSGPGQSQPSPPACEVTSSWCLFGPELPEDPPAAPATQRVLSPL
Procedure: as §1, §2

[3] = molecular target: T3, activation domains of PR (Homo sapiens, UniProt P06401); remark: listed apart in the source
T3 construct: expressed in transfected cells; host or cells: SHM (Syrian hamster myocyte) cells
T3 sequence (P06401 556-933): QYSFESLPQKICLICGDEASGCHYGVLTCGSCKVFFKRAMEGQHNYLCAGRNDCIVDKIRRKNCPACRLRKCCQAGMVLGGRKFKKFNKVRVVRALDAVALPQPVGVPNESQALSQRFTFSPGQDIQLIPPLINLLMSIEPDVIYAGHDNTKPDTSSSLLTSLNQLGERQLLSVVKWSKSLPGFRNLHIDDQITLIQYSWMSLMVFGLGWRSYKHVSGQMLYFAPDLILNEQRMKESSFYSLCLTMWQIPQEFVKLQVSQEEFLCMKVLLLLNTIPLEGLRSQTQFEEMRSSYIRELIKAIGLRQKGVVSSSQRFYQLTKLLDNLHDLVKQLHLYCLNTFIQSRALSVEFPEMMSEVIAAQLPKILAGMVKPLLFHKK
Procedure: as §1, §2

[4] = molecular target: T4, activation domains of PR (Homo sapiens, UniProt P06401); details: PR456-556 (AF1 domain)
T4 construct: expressed in transfected cells; host or cells: SHM (Syrian hamster myocyte) cells
T4 sequence (P06401 456-556): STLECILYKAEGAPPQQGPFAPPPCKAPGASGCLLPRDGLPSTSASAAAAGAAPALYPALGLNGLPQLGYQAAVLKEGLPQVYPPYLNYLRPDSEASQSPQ
Procedure: as §1, §2

[5] = molecular target: T5, activation domains of PR (Homo sapiens, UniProt P06401); remark: listed apart in the source
T5 construct: expressed in transfected cells; host or cells: SHM (Syrian hamster myocyte) cells
T5 sequence (P06401 456-650): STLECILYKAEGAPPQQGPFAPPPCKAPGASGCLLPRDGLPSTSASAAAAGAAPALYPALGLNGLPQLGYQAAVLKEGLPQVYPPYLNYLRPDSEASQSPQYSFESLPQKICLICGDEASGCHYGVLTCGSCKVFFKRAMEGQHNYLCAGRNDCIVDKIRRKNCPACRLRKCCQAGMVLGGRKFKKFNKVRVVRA
Procedure: as §1, §2

B1: polypyrimidine tract binding protein-associated splicing factor (protein)
chain: MSRDRFRSRGGGGGGFHRRGGGGGRGGLHDFRSPPPGMGLNQNRGPMGPGPGQSGPKPPIPPPPPHQQQQQPPPQQPPPQQPPPHQPPPHPQPHQQQQPPPPPQDSSKPVVAQGPGPAPGVGSAPPASSSAPPATPPTSGAPPGSGPGPTPTPPPAVTSAPPGAPPPTPPSSGVPTTPPQAGGPPPPPAAVPGPGPGPKQGPGPGGPKGGKMPGGPKPGGGPGLSTPGGHPKPPHRGGGEPRGGRQHHPPYHQQHHQGPPPGGPGGRSEEKISDSEGFKANLSLLRRPGEKTYTQRCRLFVGNLPADITEDEFKRLFAKYGEPGEVFINKGKGFGFIKLESRALAEIAKAELDDTPMRGRQLRVRFATHAAALSVRNLSPYVSNELLEEAFSQFGPIERAVVIVDDRGRSTGKGIVEFASKPAARKAFERCSEGVFLLTTTPRPVIVEPLEQLDDEDGLPEKLAQKNPMYQKERETPPRFAQHGTFEYEYSQRWKSLDEMEKQQREQVEKNMKDAKDKLESEMEDAYHEHQANLLRQDLMRRQEELRRMEELHNQEMQKRKEMQLRQEEERRRREEEMMIRQREMEEQMRRQREESYSRMGYMDPRERDMRMGGGGAMNMGDPYGSGGQKFPPLGGGGGIGYEANPGVPPATMSGSMMGSDMRTERFGQGGAGPVGGQGPRGMGPGTPAGYGRGREEYEGPNKKPRF
notes: expressed from transfected His-PSF vector or in vitro translated
[1]
  effect on PR650-933: no effect
[2]; PR1-164 (AF3), increasing amounts of PSF
  luciferase activity of pM PR1-164: significant dose-dependent reduction in luciferase activity
[2]; PR1-164, western blot
  pM PR1-164 protein: loss of pM PR1-164 protein
[3]; PR556-933 (DBD and AF2 domain), 10 nM progesterone
  transactivation of PR556-933: did inhibit transactivation
[3]; PR556-933, western blot
  protein level of PR556-933: without any reduction
[4]
  effect on PR456-556: no effect
[5]; PR456-650 (AF1 domain and DBD)
  transactivation of PR456-650: inhibited transactivation
[5]; PR456-650, western blot
  protein of PR456-650: enhanced degradation
